In patent US20030190687A1 (UAB RESEARCH FOUNDATION, published 2003):

Biological target: T1, human DR5 on the cell surface (Cos-7 cells transfected with full-length human DR5 cDNA); human cells that … (human, UniProt O14763 56-440)
T1 construct: whole, on cells; also called cell surface DR5; full-length DR5
Assay: radioisotope labeled TRA-8 on a breast cancer line in vitro; reference soluble TRAIL

- fold higher binding activity than soluble TRAIL: 50 fold
B1: anti-human DR5 monoclonal antibody TRA-8 (mouse-mouse hybridoma TRA-8, ATCC PTA-1428) (antibody, mouse IgG1, kappa, V domains shown)
VH: EVMLVESGGGLVKPGGSLKLSCAASGFTFSSYVMSWVRQTPEKRLEWVATISSGGSYTYYPDSVKGRFTISRDNAKNTLYLQMSSLRSEDTAMYYCARRGDSMITTDYWGQGTTLTVSS
VL: DIVMTQSHKFMSTSVGDRVSITCKASQDVGTAVAWYQQKPGQSPKLLIYWASTRHTGVPDRFTGSGSGTDFTLTISNVQSEDLADYFCQQYSSYRTFGGGTKLEIKR
notes: also called monoclonal anti-DR5 antibody (clone: TRA-8); TRA-8 antibody
